Where a chain is given by its changes, count along the chain named.
B1: 31E, 72A (protein, listed as Rattus norvegicus)
chain: AFDGTWKVDRNENYEKFMEKMGINVVKRKLEAHDNLKLTITQEGNKFTVKESSNFRNIDVVFELGVDFAYSAADGTELTGTWTMEGNKLVGKFKRVDNGKELIAVREISGNELIQTYTYEGVEAKRIFKKE
modifications: PEPTIDE (1)...(131) wild-type rat intestinal fatty acid binding protein
B2: 49I, 72A (protein, listed as Rattus norvegicus)
chain: B1 chain with E31G, V49I
modifications: PEPTIDE (1)...(131) wild-type rat intestinal fatty acid binding protein
B3: 38W, 72A (protein, listed as Rattus norvegicus)
chain: B1 chain with E31G, L38W
modifications: PEPTIDE (1)...(131) wild-type rat intestinal fatty acid binding protein
B4: 31F, 72A (protein, listed as Rattus norvegicus)
chain: B1 chain with E31F
modifications: PEPTIDE (1)...(131) wild-type rat intestinal fatty acid binding protein
B5: 104S, 72A (protein, listed as Rattus norvegicus)
chain: B1 chain with E31G, A104S
modifications: PEPTIDE (1)...(131) wild-type rat intestinal fatty acid binding protein
B6: 31W, 72A (protein, listed as Rattus norvegicus)
chain: B1 chain with E31W
modifications: PEPTIDE (1)...(131) wild-type rat intestinal fatty acid binding protein
B7: 18L, 72A (protein, listed as Rattus norvegicus)
chain: B1 chain with M18L, E31G
modifications: PEPTIDE (1)...(131) wild-type rat intestinal fatty acid binding protein
B8: 11Q, 72A (protein, listed as Rattus norvegicus)
chain: B1 chain with N11Q, E31G
modifications: PEPTIDE (1)...(131) wild-type rat intestinal fatty acid binding protein
B9: 49M, 72A (protein, listed as Rattus norvegicus)
chain: B1 chain with E31G, V49M
modifications: PEPTIDE (1)...(131) wild-type rat intestinal fatty acid binding protein
B10: 38Y 72G 117M (protein, listed as Rattus norvegicus)
chain: B1 chain with E31G, L38Y, A72G, Y117M
modifications: PEPTIDE (1)...(131) wild-type rat intestinal fatty acid binding protein
B11: 40M, 72A (protein, listed as Rattus norvegicus)
chain: B1 chain with E31G, I40M
modifications: PEPTIDE (1)...(131) wild-type rat intestinal fatty acid binding protein
B12: 62Y, 72A (protein, listed as Rattus norvegicus)
chain: B1 chain with E31G, F62Y
modifications: PEPTIDE (1)...(131) wild-type rat intestinal fatty acid binding protein
B13: 21D, 72A (protein, listed as Rattus norvegicus)
chain: B1 chain with M21D, E31G
modifications: PEPTIDE (1)...(131) wild-type rat intestinal fatty acid binding protein
B14: 62W, 72A (protein, listed as Rattus norvegicus)
chain: B1 chain with E31G, F62W
modifications: PEPTIDE (1)...(131) wild-type rat intestinal fatty acid binding protein
B15: 70Q, 72A (protein, listed as Rattus norvegicus)
chain: B1 chain with E31G, Y70Q
modifications: PEPTIDE (1)...(131) wild-type rat intestinal fatty acid binding protein
B16: 119L, 72A (protein, listed as Rattus norvegicus)
chain: B1 chain with E31G, Y119L
modifications: PEPTIDE (1)...(131) wild-type rat intestinal fatty acid binding protein
B17: 73Y, 72A (protein, listed as Rattus norvegicus)
chain: B1 chain with E31G, A73Y
modifications: PEPTIDE (1)...(131) wild-type rat intestinal fatty acid binding protein
B18: 31T, 72A (protein, listed as Rattus norvegicus)
chain: B1 chain with E31T
modifications: PEPTIDE (1)...(131) wild-type rat intestinal fatty acid binding protein
B19: 14L 38I 72A (protein, listed as Rattus norvegicus)
chain: B1 chain with Y14L, E31G, L38I
modifications: PEPTIDE (1)...(131) wild-type rat intestinal fatty acid binding protein
B20: 23V, 72A (protein, listed as Rattus norvegicus)
chain: B1 chain with I23V, E31G
modifications: PEPTIDE (1)...(131) wild-type rat intestinal fatty acid binding protein

Assay: Probe fluorescence ratio response to arachidonic acid relative to ADIFAB2
Assay type: binding
Conditions: arachidonic acid; response relative to ADIFAB2
Method in brief: (§1)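 Each fatty acid's response was expressed relative to ADIFAB2, the rI-FABP-L72A probe, as ΔR/ΔRreference. ΔR is the change in the background-corrected two-wavelength intensity ratio R=Fλ1/Fλ2 from its analyte-free baseline R0. Emission was read near about 420-480 nm for unbound and about 495-580 nm for FFA-bound probe.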

Molecule | DR/DR AA
B1 | 0.238
B2 | 1.796
B3 | 1.350
B4 | 1.210
B5 | 1.638
B6 | 0.993
B7 | 1.490
B8 | 1.525
B9 | 1.363
B10 | 1.541
B11 | 0.993
B12 | 1.598
B13 | 1.301
B14 | 2.206
B15 | 1.546
B16 | 1.021
B17 | 1.529
B18 | 0.143
B19 | 1.046
B20 | 1.464

Assay: Probe fluorescence ratio response to linolenic acid relative to ADIFAB2
Assay type: binding
Conditions: response relative to ADIFAB2
Method in brief: as §1

Molecule | DR/DR LNA
B1 | 0.522
B2 | 1.820
B3 | 1.336
B4 | 1.647
B5 | 1.538
B6 | 1.031
B7 | 1.544
B8 | 1.582
B9 | 1.369
B10 | 1.228
B11 | 1.021
B12 | 1.395
B13 | 1.478
B14 | 2.120
B15 | 1.622
B16 | 1.053
B17 | 1.603
B18 | 0.510
B19 | 1.177
B20 | 1.351

Assay: Probe fluorescence ratio response to linoleic acid relative to ADIFAB2
Assay type: binding
Conditions: response relative to ADIFAB2
Method in brief: as §1

Molecule | DR/DR LA
B1 | 0.430
B2 | 1.839
B3 | 2.413
B4 | 1.759
B5 | 1.715
B6 | 1.147
B7 | 1.596
B8 | 1.715
B9 | 1.370
B10 | 1.233
B11 | 1.086
B12 | 1.545
B13 | 1.562
B14 | 2.339
B15 | 1.819
B16 | 1.134
B17 | 1.711
B18 | 0.215
B19 | 1.090
B20 | 1.731

Assay: Probe fluorescence ratio response to oleic acid relative to ADIFAB2
Assay type: binding
Conditions: response relative to ADIFAB2
Method in brief: as §1

Molecule | DR/DR OA
B1 | 0.211
B2 | 1.804
B3 | 1.583
B4 | 1.331
B5 | 1.663
B6 | 0.868
B7 | 1.551
B8 | 1.716
B9 | 1.296
B10 | 1.137
B11 | 0.990
B12 | 1.439
B13 | 1.345
B14 | 2.155
B15 | 1.604
B16 | 0.778
B17 | 1.537
B18 | −0.024
B19 | 0.653
B20 | 1.561

Assay: Probe fluorescence ratio response to palmitic acid relative to ADIFAB2
Assay type: binding
Conditions: response relative to ADIFAB2
Method in brief: as §1

Molecule | DR/DR PA
B1 | 0.223
B2 | 1.162
B3 | 1.552
B4 | 1.438
B5 | 1.570
B6 | 0.618
B7 | 1.090
B8 | 1.450
B9 | 0.939
B10 | 0.574
B11 | 0.691
B12 | 1.037
B13 | 0.707
B14 | 1.450
B15 | 0.868
B16 | 0.661
B17 | 0.982
B18 | 0.145
B19 | 0.712
B20 | 1.475
